Measured values: PMC6422423, “Constitutively active BRS3 is a genuinely orphan GPCR in placental mammals” (PLoS Biology, 2019)

Tests used:
[1] = molecular target: aardvark bombesin receptor subtype-3 (aardvark (Orycteropus afer)); test: radioligand binding; displacement of 50 pM [125I]-Tyr-NMB by unlabeled peptide on disaggregated transfected HEK293 cells; 1 h at 21°C; 24.5 mM HEPES pH 7.4, 98 mM NaCl; bound tracer separated by centrifugation
[2] = molecular target: chicken bombesin receptor subtype-3 (chicken (Gallus gallus)); test: as above
[3] = molecular target: spotted gar bombesin receptor subtype-3 (spotted gar (Lepisosteus oculatus)); test: as above
[4] = molecular target: turtle bombesin receptor subtype-3 (turtle (Chrysemys picta)); test: as above
[5] = molecular target: chicken bombesin receptor subtype-3 (chicken (Gallus gallus)); test: radioligand binding; displacement of 50 pM [125I]-Tyr42-GRP by unlabeled peptide on disaggregated transfected HEK293 cells; 1 h at 21°C; 24.5 mM HEPES pH 7.4, 98 mM NaCl; bound tracer separated by centrifugation
[6] = molecular target: spotted gar bombesin receptor subtype-3 (spotted gar (Lepisosteus oculatus)); test: as above
[7] = molecular target: turtle bombesin receptor subtype-3 (turtle (Chrysemys picta)); test: as above

turtle bombesin receptor subtype-3 (turtle (Chrysemys picta)), sequence (main, as listed by the source): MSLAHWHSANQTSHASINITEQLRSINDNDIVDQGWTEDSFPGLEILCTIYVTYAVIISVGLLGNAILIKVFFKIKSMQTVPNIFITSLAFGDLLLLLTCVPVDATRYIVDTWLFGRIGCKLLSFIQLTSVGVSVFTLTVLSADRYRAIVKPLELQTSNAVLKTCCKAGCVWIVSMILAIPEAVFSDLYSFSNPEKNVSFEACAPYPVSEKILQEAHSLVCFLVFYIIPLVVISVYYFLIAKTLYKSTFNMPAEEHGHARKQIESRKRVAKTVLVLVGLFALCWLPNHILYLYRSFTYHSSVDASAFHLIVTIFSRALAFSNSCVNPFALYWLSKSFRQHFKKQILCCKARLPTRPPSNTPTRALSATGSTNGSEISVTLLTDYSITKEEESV
spotted gar bombesin receptor subtype-3 (spotted gar (Lepisosteus oculatus)), sequence (main, as listed by the source): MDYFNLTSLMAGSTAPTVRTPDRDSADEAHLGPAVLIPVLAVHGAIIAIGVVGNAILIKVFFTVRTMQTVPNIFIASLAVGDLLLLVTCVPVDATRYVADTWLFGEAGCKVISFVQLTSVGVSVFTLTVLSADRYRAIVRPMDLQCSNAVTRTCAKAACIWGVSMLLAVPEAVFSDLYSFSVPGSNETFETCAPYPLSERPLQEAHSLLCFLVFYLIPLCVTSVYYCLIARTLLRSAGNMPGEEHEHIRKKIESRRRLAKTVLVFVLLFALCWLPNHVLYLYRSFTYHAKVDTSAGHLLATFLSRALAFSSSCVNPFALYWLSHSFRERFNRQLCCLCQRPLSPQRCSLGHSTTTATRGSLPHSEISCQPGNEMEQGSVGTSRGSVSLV
aardvark bombesin receptor subtype-3 (aardvark (Orycteropus afer)), sequence (P32247 other isoform, or with tags, fused parts or gaps): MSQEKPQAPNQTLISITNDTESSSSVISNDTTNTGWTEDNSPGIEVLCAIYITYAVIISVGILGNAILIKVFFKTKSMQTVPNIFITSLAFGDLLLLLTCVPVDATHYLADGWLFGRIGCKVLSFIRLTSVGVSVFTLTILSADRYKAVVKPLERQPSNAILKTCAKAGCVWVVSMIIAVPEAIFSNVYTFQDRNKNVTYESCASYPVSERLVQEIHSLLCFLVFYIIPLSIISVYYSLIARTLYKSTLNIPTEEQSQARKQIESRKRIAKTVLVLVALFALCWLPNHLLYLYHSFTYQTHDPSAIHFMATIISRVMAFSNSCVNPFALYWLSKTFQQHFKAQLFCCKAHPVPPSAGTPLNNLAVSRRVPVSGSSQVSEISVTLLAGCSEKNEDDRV

- Ki [1]: > 1000 nM
- IC50 [2]: 2.26 nM
- IC50 [3]: 2.65 nM
- IC50 [4]: 2.82 nM
- IC50 [5]: 1.35 nM
- IC50 [6]: 1.74 nM
- IC50 [7]: 1.14 nM
Substance: neuromedin B, unlabeled ligand peptide of the radioligand binding assays
